Assay results reported in patent US20260167739A1 (PHANES THERAPEUTICS, published 2026).
Residue numbers refer to the chain shown, from its start.

T1: human 5T4 (32-355) tagged with poly-his at the C-terminus (ACROBiosystems, CAT #TPG-H52E5) (human, UniProt Q13641 32-355)
T1 construct: range 32-355; Bought protein; also called recombinant human 5T4; recombinant 5T4 Ser32-Ser355; not shown: C-terminal poly-his tag
T1 sequence (looked up): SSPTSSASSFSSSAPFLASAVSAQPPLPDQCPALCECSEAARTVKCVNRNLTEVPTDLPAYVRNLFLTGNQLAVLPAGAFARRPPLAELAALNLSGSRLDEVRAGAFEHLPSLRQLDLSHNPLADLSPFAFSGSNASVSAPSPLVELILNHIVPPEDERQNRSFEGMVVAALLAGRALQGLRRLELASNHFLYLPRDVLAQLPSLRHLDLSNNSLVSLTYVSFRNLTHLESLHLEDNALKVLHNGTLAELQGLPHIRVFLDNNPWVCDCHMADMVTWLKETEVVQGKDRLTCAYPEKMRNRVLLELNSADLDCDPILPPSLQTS

B1: L3D5-C (antibody, V domains shown)
VH: GVQLQQSGPELVKPGASVKISCKASGYTFTDFYMNWVKQSHGKSLEWIGDINPNNGVTTYNQKFKDKATLTVDKSSSTAYMELRSLTSEDSAVYYCATGAIHYGYDGYFDVWGAGTTVTVSS
VL: DIVMTQSPATLSVTPGDRVSLSCRASQSISDYLHWYQQKSHESPRLLIKYASQSISGIPSRFSGSGSGSDFTLSINSVEPEDVGVYYCQNGHSFPLTFGAGTKLELK
notes: Mouse VH and VL fused to human IgG1 heavy and kappa light constant regions; also called chimeric version of L3D5
B2: S2F4-C (antibody, V domains shown)
VH: EVQLVESGGGLVKPGGSLKLSCAASGFTFSDYGMHWVRQAPEKGLEWIAYISFGSSTIYYADTVKGRFTISRDNAKNTLFLQMTSLRSEDTAMYYCARTHGYYRSWFAYWGQGTLVTVSA
VL: DIVLTQSPASLAVSLGQRATISCRASQSVSTSSYSYMNWYQQKPGQPPKLLIKYASNLESGVPARFSGSGSGTDFTLNIHPVEEEDTATYYCQHSWEIPLTFGAGTKLELK
notes: Mouse VH and VL fused to human IgG1 heavy and kappa light constant regions; also called chimeric version of S2F4
B3: L3F10-C (antibody, V domains shown)
VH: EVKLVESGGGLVNTGGSLKLSCAASGFTFSDYFMYWVRQTPDKRLEWVAYISNSGGNTYYPDTVKGRFTISRDNAKNTLYLQMSRLKSEDTAMYFCTRPRPYGGYYAGIYYAMDYWGQGTSVTVSS
VL: DIQMTQTTSSLSASLGDRVTISCRASQDISNYLNWYQQKPDGTVKLLIYYTSRLHSGVPSRFSGSGSGTDYSLTISNLEPEDIATYYCQQYSKLPLTFGAGTKLELK
notes: Mouse VH and VL fused to the constant regions of human IgG1 heavy chain and kappa light chain; also called chimeric version of L3F10
B4: L3E1-C (antibody, V domains shown)
VH: QVQLQQFGAELVKPGAAVKMSCKASGYTFTSYWITWVKQRPGQGLDWIGDIYPGGGSTNYHEKFKSKATLTVDTSSSTAYMQLSSLTSEDSAVYYCARGLRDFDYWGQGTTITVSS
VL: B3 VL with T8A, D28H, S30N, Y50S, Y71F, L96R, A100G, L106I
notes: Mouse VH and VL fused to human IgG1 heavy and kappa light constant regions; also called chimeric version of L3E1
B5: L1C7-C (antibody, V domains shown)
VH: EFQLQQSGPEVVKPGASVKISCKASGYSFTVYNMNWVKQSNGKSLDWIGVINPNYGTVTYNQKFKGKATLTVDQSSSTAYMQLNSLSSEDSAVYYCATTATWGQGTTLTVSS
VL: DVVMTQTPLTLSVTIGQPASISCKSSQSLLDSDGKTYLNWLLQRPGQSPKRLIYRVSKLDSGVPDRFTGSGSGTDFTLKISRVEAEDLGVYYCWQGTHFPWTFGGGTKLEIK
notes: Mouse VH and VL fused to human IgG1 heavy and kappa light constant regions; also called chimeric version of L1C7
B6: S3C7-C (antibody, V domains shown)
VH: EVKLVESGGGLVNTGGSLKLSCAASGFNFSHYYMYWVRQTPEKRLEWVAYIGNSGGSTYNPDTVKGRFTISRDNAKNTLYLQMSRLKSEDTAIYYCARQNYYSGSFYFDSWGQGTTITVSS
VL: NIVLTQSPTSMSMSVGERVTLSCKASENVGTYVSWYQQKPEQSPKLLIYGKSNRYTGVPDRFTGSGSAPDFTLTISSVQAEDLADYYCGQSYSFPFTFGTGTKLEIK
notes: Mouse VH and VL fused to human IgG1 heavy and kappa light constant regions; also called chimeric version of S3C7
B7: L1D8-CR11-C (antibody, V domains shown)
VH: QVQLQQSGAELMKPGASLKLSCKATGYTFTGYWIEWVKQRPGHGLEWIGEILPGRSSTNYNERFKGKAIFTADTSSNTAYMQLSSLTTEDSAIYYCARGRRDFDYWGQGTTITVSS
VL: SIVMTQTPKFLPVSAGDRVTMTCKASQSVGNNVAWYQQKPGQSPKVLIYDASNRYTGVPDRFTGSGSGTDFTFTISSVQVEDLAVYFCQQYYSSPPTFGAGTKLELK
notes: Mouse VH and VL fused to human IgG1 heavy and kappa light constant regions; also called chimeric version of L1D8-CR11; LID8-CR11
B8: L1D8-CR21-C (antibody, V domains shown)
VH: B7 VH with Y32S
VL: B7 VL
notes: Mouse VH and VL fused to human IgG1 heavy and kappa light constant regions; also called chimeric version of L1D8-CR21; LID8-CR21
B9: L2B11-C (antibody, V domains shown)
VH: EVKLVESEGGLVQPGSSMKLSCTASGFTFSDYYMAWVRQVPEKGLEWVGNINYDGSRTYYLDSLKSRFIISRDNGKNILYLQMSSLKSEDTATYYCAREGDNYGNSHYAMDYWGQGTSVTVSS
VL: DVLMTQTPLSLPVSLGDQASISCRSSQSFVHSNGNTYLEWYLQKPGQSPKLLIYKVSNRFSGVPDRFTGSGSGTDFTLKISRVEAEDLGVYYCFQGSHVPLTFGAGTRLELK
notes: Mouse VH and VL fused to human IgG1 heavy and kappa light constant regions; also called chimeric version of L2B11
B10: L1F2-C (antibody, V domains shown)
VH: QVHLQQSGAELVRPGTSVKVSCKASGYAFTNYVIEWVKQRPGQGLEWIGVINPGSGGTNYNENFKGKATLTADKSSSTAYMQLSSLTSEDSAVYFCARGTVELYAMDYWGQGTSVTVSS
VL: DIQMTQTTSSLSASLGDRVTISCRASQDISYYLNWYQQKPDGTVKLLISYTSRLHSGVPSRFSGSGSGTDYSLTISNLEQEDIATYFCQQDIKHPYTFGGGTELEIK
notes: Mouse VH and VL fused to human IgG1 heavy and kappa light constant regions; also called chimeric version of L1F2
B11: L1H7-C (antibody, V domains shown)
VH: QVQLQQSGPELVKPGASVKISCKASGYAFSSSWMNWVKQRPGKGLEWIGRIYPGNGNTNYNGKFKGKATLTADKSSSTAYMQLNSLTSEDSAVYFCASRFAYWGQGTLVAVSA
VL: DIVLTQSPASLAVSLGQRATISCRASKSVSTSGYSYMHWYQQKPGQPPKLLIYLASNLESGVPARFSGSGSGTDFTLNIHPVEEEDAATYYCQHSRELRTFGGGTKLEIK
notes: Mouse VH and VL fused to human IgG1 heavy and kappa light constant regions; also called chimeric version of L1H7

target: T1, human 5T4 (32-355) tagged with poly-his …; assay: ELISA, 5T4-His coated on the plate
Text: FIGS. 1A-IC show the binding of purified chimeric anti-5T4 mAbs (VH and VL regions of mouse mAb fused to the constant regions of human IgG1 heavy chain and kappa light chain, respectively) to immobilized recombinant 5T4 in an ELISA assay. The antigen was human 5T4 (32-355) tagged with poly-his at the C-terminus (ACROBiosystems, CAT #TPG-H52E5). L3F10-C, the chimeric version of L3F10; the same naming rule is used for the rest of the antibodies. Isotype Control (IgG1), a negative control antibody.
Purified chimeric mAbs were tested in an ELISA assay for their ability to bind to immobilized 5T4. Recombinant human 5T4 (ACROBiosystems, CAT #TPG-H52E5) in PBS was coated onto a 96-well plate (Corning, CAT #3361) at 4° C. overnight. The next day, plates were blocked using 5% BSA in TBST for 1 hour at room temperature and washed using TBST. Antibody samples at various concentrations in 5% BSA in TBST were added to the wells and incubated for 1 hour at room temperature. Plates were washed with TBST and bound antibody was labeled using mouse anti-human IgG Fc HRP (Thermo, CAT #H10007) for 1 hour at room temperature. Plates were washed again using TBST, and then ELISAs were developed using 1 Step Ultra TMB detection reagent (Thermo, CAT #34028) for 4 minutes before being quenched with ELISA stop solution (Thermo. CAT #SS04). Plates were quantified by measuring absorbance at 450 nm by plate reader.

binding result	Binder
binds	B1
binds	B2
binds	B3
binds	B4
binds	B5
binds	B6
binds	B7
binds	B8
binds	B9
binds	B10
binds	B11
